Laboratory results: paper PMC9135631 (2022)

B1: Latrophilin-3 wild type (Lphn3^HA,Flag) (receptor)
chain: MWPSQLLIFMMLLAPIIHAFSRAPIPMAVVRRELSCESYPIELRCPGTDVIMIESANYGRTDDKICDSDPAQMENIRCYLPDAYKIMSQRCNNRTQCAVVAGPDVFPDPCPGTYKYLEVQYECVPYKVEQKVFLCPGLLKGVYQSEHLFESDHQSGAWCKDPLQASDKIYYMPWTPYRTDTLTEYSSKDDFIAGRPTTTYKLPHRVDGTGFVVYDGALFFNKERTRNIVKFDLRTRIKSGEAIIANANYHDTSPYRWGGKSDIDLAVDENGLWVIYATEQNNGKIVISQLNPYTLRIEGTWDTAYDKRSASNAFMICGILYVVKSVYEDDDNEATGNKIDYIYNTDQSKDSLVDVPFPNSYQYIAAVDYNPRDNLLYVWNNYHVVKYSLDFGPLDSRSGQAHHGQVSYISPPIHLDSELERPSVKDISTTGPLGMGSTTTSTTLRTTTLSPGRSTTPSVSGRRNRSTSTPSPAVEVLDDMTTHLPSASSQIPALEESCEAVEAREIMWFKTRQGQIAKQPCPAGTIGVSTYLCLAPDGIWDPQGPDLSNCSSPWVNHITQKLKSGETAANIARELAEQTRNHLNAGDITYSVRAMDQLVGLLDVQLRNLTPGGKDSAARSLNKLQKRERSCRAYVQAMVETVNNLLQPQALNAWRDLTTSDQLRAATMLLHTVEESAFVLADNLLKTDIVRENTDNIKLEVARLSTEGNLEDLKFPENMGHGSTIQLSANTLKQNGRNGEIRVAFVLYNNLGPYLSTENASMKLGTEALSTNHSVIVNSPVITAAINKEFSNKVYLADPVVFTVKHIKQSEENFNPNCSFWSYSKRTMTGYWSTQGCRLLTTNKTHTTCSCNHLTNFAVLMAHVEVKHSDAVHDLLLDVITWVGILLSLVCLLICIFTFCFFRGLQSDRNTIHKNLCISLFVAELLFLIGINRTDQPIACAVFAALLHFFFLAAFTWMFLEGVQLYIMLVEVFESEHSRRKYFYLVGYGMPALIVAVSAAVDYRSYGTDKVCWLRLDTYFIWSFIGPATLIIMLNVIFLGIALYKMFHHTAILKPESGCLDNINYEDNRPFIKSWVIGAIALLCLLGLTWAFGLMYINESTVIMAYLFTIFNSLQGMFIFIFHCVLQKKVRKEYGKCLRTHCCSGKSTESSIGSGKTSGSRTPGRYSTGSQSRIRRMWNDTVRKQSESSFITGDINSSASLNREPYRETSMGVKLNIAYQIGASEQCQGYKCHGYSTTEW
B2: soluble FLRT3 extracellular domain fused to the constant fraction of human IgG (FLRT3^ECD-Fc) (Fc fusion)
chain: KSCPSVCRCDAGFIYCNDRFLTSIPTGIPEDATTLYLQNNQINNAGIPSDLKNLLKVERIYLYHNSLDEFPTNLPKYVKELHLQENNIRTITYDSLSKIPYLEELHLDDNSVSAVSIEEGAFRDSNYLRLLFLSRNHLSTIPWGLPRTIEELRLDDNRISTISSPSLQGLTSLKRLVLDGNLLNNHGLGDKVFFNLVNLTELSLVRNSLTAAPVNLPGTNLRKLYLQDNHINRVPPNAFSYLRQLYRLDMSNNNLSNLPQGIFDDLDNITQLILRNNPWYCGCKMKWVRDWLQSLPVKVNVRGLMCQAPEKVRGMAIKDLNAELFDCKDSGIVSTIQITTAIPNTVYPAQGQWPAPVTKQPDIKNPKLTKDHQTTGSPSRKTITITVKSVTSDTIHISWKLALPMTALRLSWLKLGHSPAFGSITETIVTGERSEYLVTALEPDSPYKVCMVPMETSNLYLFDETPVCIETETAPLRMYNPTTTLNREQEKEPYKNPNLP
modifications: N-terminal HA/Flag epitopes left out; isoform not printed (Q9HAR2-2 chosen over Q9HAR2-4, both fit the variant numbering); signal peptide removed and autoproteolysis at the GPS expected in the cell

What was measured:
[1] = target: 8xHis-tagged Teneurin-2 extracellular domain (Ten2^ECD-His) (UniProt Q9NT68 401-2774, N-terminal HA/Flag epitopes left out; isoform not printed (Q9HAR2-2 chosen over Q9HAR2-4, both fit the variant numbering); signal peptide removed and autoproteolysis at the GPS expected in the cell)
[2] = target: B1

B1 showed a Kd [1] of 0.69 nM.

B2 showed a Kd [2] of 0.988 nM.
